Results: the Human Domainome abundance scans (Beltran et al. 2025)

B1: POU domain, class 3, transcription factor 4, residues 280 to 335; numbered along this chain, P49335 (parent)
chain: KKRTSIEVSVKGVLETHFLKCPKPAAQEISSLADSLQLEKEVVRVWFCNRRQKEKR

Variants of: B1
Experiment: abundance fitness (aPCA) (normalised: wild type 0, dead -1); higher = more abundant; growth selection in yeast, the domain comes from the species named
Settings: Homo sapiens

Abundance fitness: each site, then its substitutions
E39: A -0.515; D 0.122; F -0.735; V -0.565; W -0.746; T -0.421; M -0.478; K -0.583; S -0.074; N -0.134; G -0.686; H -0.551; C -0.411; P -0.022; I -0.456; R -0.572; Q -0.522
K40: W -0.539; R -0.071; Q -0.063; A 0.026; N -0.248; I -0.638; V 0.097; C -0.154; M -0.269; H 0.099; Y 0.009; S -0.188; F 0.195; P 0.348; L -0.418; G -0.441; D -0.287; T 0.181; E 0.192
S35: I -0.373; L -0.122; C -0.383; H 0.345; W -0.707; E 0.115; T -0.01; M 0.127; G -0.638; K 0.257; N -0.45; R 0.152; Y -0.364; F -0.249; D 0.031; V -0.456; A 0.071
S30: K -0.003; F -0.332; M -0.262; L -0.536; H -0.706; R -0.185; E 0.215; N -0.196; I -0.148; V -0.058; D 0.08; T -0.118; Q -0.163; C -0.396; P -0.652; G -0.209
I29: S -0.762
A33: P -0.907; W -0.835; R -0.667; N -0.964; L -0.598; M -0.836; I -0.802; T -0.704; D -0.96; K -0.959; V -1.02; Y -0.917; G -0.853; F -0.773; E -0.634
L32: A -0.247; V -0.625; P -0.176; N -0.785; W -0.614; H -0.86; Q -0.916; E -0.631; R -0.847; S -0.732; F -0.877; G -0.784; M -0.425; I -0.041; T -0.939; C -0.633
V42: M -0.401; R -0.689; G -0.648; A -0.552; F -0.318; D 0.216; L -0.122; W -0.291; N -0.799; Y -0.396; T 0.207; E 0.185; S -0.431; I -0.49; K -0.596; P -0.874; Q -0.254
Q27: T -0.335; W -0.295; M -0.344; R -0.054; K -0.157; V -0.434; P -0.761
E28: T -0.411; C -0.569; D -0.3; G -0.886; V -0.398; K -0.713; A -0.657; F -0.732; L -0.357; H -0.63; P -0.352; W -0.484; S -0.692; I -0.47; Y -0.382; Q -0.432; N -0.123; M -0.355
N49: D 0; L -0.479; H -0.46; K -0.119; E 0.117; P -0.724; C -0.686; I -0.613; G -0.711; M -0.304; A -0.373; F -0.574
E41: F -0.841; L -0.955; C -0.84; K -0.602; A -0.776; S -0.368; Q -0.792; D 0.043; R -0.637; W -0.852; P -0.831; V -0.817; Y -0.819; I -0.828; N -0.189; H -0.161; G -0.709; T -0.466
V45: P -0.38; F -0.517; K 0.165; G -0.25; I -0.527; W -0.337; T 0.307; E 0.193; R -0.062; Q 0.156; A 0.085; Y -0.372; M -0.041; S 0.097; L 0.052; N 0.373; C -0.243; H -0.077
S31: I 0.004; Q -0.031; K 0.022; V 0.013; T 0.035; L -0.114; F -0.059; R 0.29; G -0.398; N 0.182; M 0.096; A 0.006; E -0.058; P -0.913; W -0.467; H 0.219; C -0.414
D34: W -0.801; G -0.537; H 0.069; L -0.528; Q -0.183; I -0.717; S -0.317; R 0.019; A -0.254; Y -0.793; K 0.109; P -0.843; E -0.172; M -0.479; N -0.384; C -0.531; T -0.472
C48: G -0.526; K 0.282; I 0.155; A -0.051; N -0.113; H 0.068; S 0.078; P -0.762; V 0.058; R 0.056; W -0.073; T -0.187; M 0.022; D 0.023; Q 0.154; E 0.549
W46: Q -0.403; A -0.623; H -0.647; T -0.709; M -0.932; E -0.892; S -0.693; R -0.927; N -0.816; P -0.953; I -0.688; K -0.673; V -0.82; G -0.639; F -1.05
F47: M -0.897; P -0.996; W -0.769; S -0.426; D -0.565; Q -0.899; K -1.16; G -0.745; Y -0.534; H -0.571; A -0.65; R -0.677; L -0.868; V -0.795; E -0.872; C -0.792
V43: D -0.614; W -1.19; G -0.687; A -0.692; S -0.852; I -0.543; Q -0.601; R -0.738; C -0.832; L -0.437; K -1.01; F -0.567; M -1.22; T -0.975; P -0.774; E -0.815; Y -0.545
Q37: V -0.923; P -0.855; D 0.043; H 0.104; N 0.071; S -0.081; R -0.21; L -0.664; F -0.615; K -0.322; C -0.198; M -0.22; A -0.437; G 0.177
L38: Y -0.483; Q -0.89; T -0.607; W -0.884; I 0.048; K -0.531; C -0.656; P -0.932; A -0.744; E -0.729; M -0.148; S -0.815; V -0.269; G -0.679
R44: I -1.01; T -0.343; P -0.865; A -0.193; Q -0.074; S -0.343; N 0.059; V -0.84; G -0.473; W -0.68; C -0.801; Y -0.643; M -0.539; L -0.686; E 0.182
L36: G -0.703; E -0.781
